The experiment concerns the target T1, M. tb ParB with C-terminal 6xHis-tag (M. tuberculosis, UniProt P9WIJ9 1-344).
T1 construct: not shown: 6xHis, C-terminal, kept
T1 sequence: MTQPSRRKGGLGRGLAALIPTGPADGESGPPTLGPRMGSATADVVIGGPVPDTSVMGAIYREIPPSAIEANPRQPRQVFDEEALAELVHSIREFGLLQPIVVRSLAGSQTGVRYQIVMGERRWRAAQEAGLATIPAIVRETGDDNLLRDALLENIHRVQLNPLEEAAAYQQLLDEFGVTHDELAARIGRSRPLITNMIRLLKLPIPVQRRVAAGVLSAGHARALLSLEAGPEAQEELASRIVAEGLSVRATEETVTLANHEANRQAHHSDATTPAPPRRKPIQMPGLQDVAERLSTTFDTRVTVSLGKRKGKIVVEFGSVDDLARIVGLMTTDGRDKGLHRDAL
Briefly: pull-down; equimolar bait (GST-Rv1708) and prey (His-tagged) incubated O/N at 4 °C in PBS + 0.1 % Triton X-100, then GSH beads 4 h at 4 °C; washed; Western blot with anti-6xHis. As to conditions: both partners purified.

The text below walks through data of article PMC10482377, “Septum site placement in Mycobacteria – identification and characterisation of mycobacterial homologues of Escherichia coli MinD” (Microbiology, 2023).

B1: GST-Rv1708 (natural protein)
chain: MPAGLPGQASVAVRLSCDVPPDARHHEPRPGMTDHPDTGNGIGLTGRPPRAIPDPAPRSSHGPAKVIAMCNQKGGVGKTTSTINLGAALGEYGRRVLLVDMDPQGALSAGLGVPHYELDKTIHNVLVEPRVSIDDVLIHSRVKNMDLVPSNIDLSAAEIQLVNEVGREQTLARALYPVLDRYDYVLIDCQPSLGLLTVNGLACTDGVIIPTECEFFSLRGLALLTDTVDKVRDRLNPKLDISGILITRYDPRTVNSREVMARVVERFGDLVFDTVITRTVRFPETSVAGEPITTWAPKSAGALAYRALARELIDRFGM
notes: also called M. tb minD; not shown: GST, N-terminal, kept
In the case of B1, the binding result is given as “binds”.
